Results as given in patent US20210292413A1.

What was measured:
[1] = target: HBV purified from blood of chronic hepatitis B patients (hHBV virions carrying hHBsAg) (hepatitis B virus from CHB patients); assay: BLI, Siglec-3.Fc immobilized on the sensor, untreated hHBV in solution
[2] = target: hHBV treated with sialidase S (hepatitis B virus from CHB patients); assay: BLI, Siglec-3.Fc immobilized on the sensor, sialidase S-treated hHBV in solution
[3] = target: HBV purified from blood of chronic hepatitis B patients (hHBV virions carrying hHBsAg) (hepatitis B virus from CHB patients); assay: BLI, Siglec-3.Fc immobilized on the sensor, hHBV in solution
[4] = target: HBV purified from blood of chronic hepatitis B patients (hHBV virions carrying hHBsAg) (hepatitis B virus from CHB patients); assay: calculated from three BLI results by the multivalency equation of paragraph 89

In the case of “recombinant human Siglec-3 ECD.Fc fusion protein (from UniProt P20138 18-259)”, the Kd [1] is reported as 0.591 nM, the koff [1] is reported as 0.000697 s⁻¹ and the kon [1] is reported as 1.18e+06 M⁻¹ s⁻¹. The Kd [2] was 0.384 nM, the koff [2] was 0.000273 s⁻¹ and the kon [2] was 711000 M⁻¹ s⁻¹. The Kd [3] was 0.115 nM, the koff [3] was 0.000358 s⁻¹ and the kon [3] was 3.11e+06 M⁻¹ s⁻¹. The valence (N) [4] was 2.
